Literature values in paper PMC11187271.

Molecular target: Galectin-1 (Homo sapiens) (UniProt P09382)
UniProt P09382, sequence (P09382 2-135): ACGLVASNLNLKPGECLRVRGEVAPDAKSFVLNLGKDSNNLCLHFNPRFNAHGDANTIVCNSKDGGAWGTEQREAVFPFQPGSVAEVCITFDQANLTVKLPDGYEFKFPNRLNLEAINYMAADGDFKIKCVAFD

**Q.** Which Kd does the source give for Thymosin alpha-1 (from UniProt P06454) here?
**A.** Its Kd is 46 µM.
